Laboratory results as given in patent publication US20220273789A1.

What follows are substances tested against human IgG (human) (assay: BLI (Octet), gEgI on Ni-NTA sensor, hIgG in solution).
Work on “HSV2-gE_P318R S338H_gI (from UniProt P89475 21-416; P06764 21-256) (receptor)” yielded a Kd of 5.32 nM, a Response of 0.192 nm and a koff of 4.28e-05 s⁻¹. It also gave a kon of 8050 M⁻¹ s⁻¹.
For “HSV2-gE_P318R S338L_gI (from UniProt P89475 21-416; P06764 21-256) (receptor)”, the Kd was 176 nM, the Response was 0.49 nm and the koff was 0.00138 s⁻¹. The kon was 7870 M⁻¹ s⁻¹.
“HSV2-gE_P319G V340M_gI (from UniProt P89475 21-416; P06764 21-256) (receptor)” was tested, and the Kd was 297 nM, the Response was 0.393 nm and the koff was 0.00393 s⁻¹. The kon was 13200 M⁻¹ s⁻¹.
“HSV2-gE_P319G V340R_gI (from UniProt P89475 21-416; P06764 21-256) (receptor)” showed a Kd of 197 nM, a Response of 0.287 nm and a koff of 0.00137 s⁻¹. The kon was 6960 M⁻¹ s⁻¹.
“HSV2-gE_P319G V340W_gI (from UniProt P89475 21-416; P06764 21-256) (receptor)” showed a Kd of 385 nM, a Response of 0.106 nm and a koff of 0.00249 s⁻¹. For the same substance, the kon was 6460 M⁻¹ s⁻¹.
Work on “HSV2-gE_P319L V340M_gI (from UniProt P89475 21-416; P06764 21-256) (receptor)” yielded a Kd of 222 nM, a Response of 0.336 nm and a koff of 0.00216 s⁻¹. It also gave a kon of 9750 M⁻¹ s⁻¹.
Substance “HSV2-gE_P319L V340R_gI (from UniProt P89475 21-416; P06764 21-256) (receptor)” has a Kd of 160 nM, a Response of 0.509 nm and a koff of 0.00141 s⁻¹. For the same substance, the kon was 8770 M⁻¹ s⁻¹.
“HSV2-gE_P319L V340W_gI (from UniProt P89475 21-416; P06764 21-256) (receptor)” was tested, and the Kd was 230 nM, the Response was 0.139 nm and the koff was 0.00217 s⁻¹. It also gave a kon of 9450 M⁻¹ s⁻¹.
“HSV2-gE_R314G F322A_gI (from UniProt P89475 21-416; P06764 21-256) (receptor)” was tested, and the Kd was 232 nM, the Response was 0.469 nm and the koff was 0.00328 s⁻¹. For the same substance, the kon was 14200 M⁻¹ s⁻¹.
Work on “HSV2-gE_R314G F322I_gI (from UniProt P89475 21-416; P06764 21-256) (receptor)” yielded a Kd of 272 nM, a Response of 0.291 nm and a koff of 0.00262 s⁻¹. It also gave a kon of 9620 M⁻¹ s⁻¹.
“HSV2-gE_R314G F322P_gI (from UniProt P89475 21-416; P06764 21-256) (receptor)” gave a Kd of 181 nM, a Response of 0.439 nm and a koff of 0.00209 s⁻¹. For the same substance, the kon was 11500 M⁻¹ s⁻¹.
“HSV2-gE_R314G P318D_gI (from UniProt P89475 21-416; P06764 21-256) (receptor)” was tested, and the Kd was 369 nM, the Response was 0.122 nm and the koff was 0.0033 s⁻¹. The kon was 8930 M⁻¹ s⁻¹.
Substance “HSV2-gE_R314G P318I_gI (from UniProt P89475 21-416; P06764 21-256) (receptor)” has a Kd of 449 nM, a Response of 0.153 nm and a koff of 0.00278 s⁻¹. For the same substance, the kon was 6200 M⁻¹ s⁻¹.
With “HSV2-gE_R314G P318R_gI (from UniProt P89475 21-416; P06764 21-256) (receptor)” the Kd was 148 nM, the Response was 0.22 nm and the koff was 0.000833 s⁻¹. For the same substance, the kon was 5640 M⁻¹ s⁻¹.
Work on “HSV2-gE_R314G V340M_gI (from UniProt P89475 21-416; P06764 21-256) (receptor)” yielded a Kd of 390 nM, a Response of 0.466 nm and a koff of 0.00401 s⁻¹. For the same substance, the kon was 10300 M⁻¹ s⁻¹.
“HSV2-gE_R314G V340R_gI (from UniProt P89475 21-416; P06764 21-256) (receptor)” gave a Kd of 394 nM, a Response of 0.439 nm and a koff of 0.00245 s⁻¹. It also gave a kon of 6230 M⁻¹ s⁻¹.
Substance “HSV2-gE_R314G V340W_gI (from UniProt P89475 21-416; P06764 21-256) (receptor)” has a Kd of 1010 nM, a Response of 0.144 nm and a koff of 0.00543 s⁻¹. It also gave a kon of 5400 M⁻¹ s⁻¹.
Work on “HSV2-gE_R314L F322A_gI (from UniProt P89475 21-416; P06764 21-256) (receptor)” yielded a Kd of 303 nM, a Response of 0.603 nm and a koff of 0.00385 s⁻¹. It also gave a kon of 12700 M⁻¹ s⁻¹.
“HSV2-gE_R314L F322I_gI (from UniProt P89475 21-416; P06764 21-256) (receptor)” was tested, and the Kd was 274 nM, the Response was 0.433 nm and the koff was 0.00277 s⁻¹. The kon was 10100 M⁻¹ s⁻¹.
